# Measurements taken from patent publication US8624002B2, “Prostaglandin E2 binding proteins and uses thereof” (AbbVie, Inc., priority 2008, dated 2014).
# B1: 2B5-8.0: recombinant anti-PGE2 antibody from solved 2B5 sequence; VH SEQ ID NO 42, VL SEQ ID NO 43 (antibody, V domains shown)
# VH: QVQLQQSGPELVRPGSSVKISCKASGYTFTKYWLGWVKQRPGHGLEWIGDIYPGYDYTHYNEKFKDKATLTVDTSSSTAYMQLSSLTSEDSAIYYCARSDGSSTYWGQGTLVTVSA
# VL: DVLMTQTPLSLPVSLGDQASISCTSSQNIVHSNGNTYLEWYLQRPGQSPKLLIYKVSNRFSGVPDRFSGSGSGTVFTLKISRVEAEDLGVYYCFQVSHVPYTFGGGTKLEIKR
# How the values were obtained:
# [1] = Biotin-PGE2 competition ELISA (prostaglandin selectivity); format: binding
# Method: Competition enzyme linked immunosorbent assays were performed to determine prostaglandin binding specificity for antibodies that bind prostaglandin E2, according to at least one of the two following methods.
# ELISA plates (Costar 3369, Corning, N.Y.) were coated with 50 μl/well of anti-host Fc IgG (Sigma, St. Louis, Mo.) at 2 μg/ml in PBS (Invitrogen, Carlsbad, Calif.). Following an overnight incubation at 4° C., the plate was blocked with 200 μl Superblock (Pierce #37535, Rockford, Ill.). The IgG samples were diluted to 6 μg/ml in Assay Buffer (10% Superblock in PBS containing 0.05% Surfactamps (Pierce #37535, Rockford, Ill.). The PGE2-biotinamide was diluted to 3 nM in Assay Buffer. A titration curve in Assay Buffer was prepared for the prostaglandins PGA2 (Cayman Chemicals, Ann Arbor, Mich.), PGD2 (Cayman Chemicals, Ann Arbor, Mich.) and PGE2 (Cayman Chemicals, Ann Arbor, Mich.) starting at 300 nM by a 1:10 serial dilution. The reagents were added to tubes at a volume of 50 μl each/tube and preincubated for 1 hour at room temperature. Following the preincubation, the mix was transferred to the blocked plates and allowed to incubate for 1 hour at room temperature. Next, the plates were washed four times with Tween 20-Tris buffered solution (TTBS). Streptavidin polyhrp40 in Assay Buffer (Fitzgerald Industries, Concord, Mass.) at a 1:5000 dilution was then added to the wells and incubated for 45 minutes at room temperature. A final wash step was performed and the plates were developed using a single step TMB system (Sigma #T8665, Sigma, St. Louis, Mo.) and 100 μl/well 2N H2SO4. Plates were read at 450 nm on a Molecular Devices Spectramax plate reader (Sunnyvale, Calif.). […] IC50 number was determined using GraphPad Prism 5 (GraphPad Software, La Jolla, Calif.). The cross reactivity index was then calculated by IC50 of PGE2/IC50 of other prostaglandin(s).
# [2] = Pharmacokinetics of 2B5.8.0 in Balb/C mice; format: in vivo
# Method: Pharmacokinetic studies with mouse mAb 2B5.8.0 were carried out in Sprague Dawley rats and Balb/C mice. Male and female rats and mice were dosed intravenously or intraperitoneally (mice only) with a single dose of 4 mg/kg 2B5.8.0 and serum samples were analyzed using antigen capture based chemiluminescent MSD (Meso Scale Discovery) method (Meso Scale Discovery, Gaithersburg, Md.). Pharmacokinetic parameters were calculated by non-compartmental analysis using WinNonlin.
# The following MSD assay was used to measure antibody concentration in rat and mouse serum. MSD streptavidin plates (Meso Scale Discovery, Gaithersburg, Md.) were washed with phosphate buffered saline containing 0.05% Tween-20 (Sigma, St. Louis, Mo.). Plates were blocked with 250 μL/well blocking solution (MSD Block, Meso Scale Discovery, diluted to 3% final concentration in PBS) for 1 hour, covered, with shaking (600 rpm) at room temperature. After washing, 70 μL of biotinylated PGE2 (Prostoglandin E2-biotinamide, Cayman Chemical, Ann Arbor, Mich., cat# 10006987, lot# 190831-191028, 0.01 ug/mL in assay buffer) was added to each well. The plates were covered and incubated with shaking (600 rpm) for 1 hour at room temperature
# Prior to analysis, rat and mouse serum samples were thawed on ice, mixed gently, and centrifuged at 14,000 rpm for 3 minutes at 4° C. in an eppendorf centrifuge. Standard curve and control samples were prepared in rat and mouse serum. A Tecan Evo automated liquid handling station was used to dilute standard curve, high, medium, and low controls, and serum samples in assay buffer, keeping 1% final serum concentration constant. MSD plates were washed again and study samples, standard curve samples and blanks, as well as high, medium, and low controls were added (70 μL/well). The plates were covered, and incubated for 1 hour with shaking (600 rpm) at room temperature.
# After incubation, the MSD plates were washed, and 70 μL of sulfo-tagged goat anti-mouse IgG (Meso Scale Discovery; diluted to 1 ug/mL in assay buffer) was added to each well. The MSD plates were covered, and incubated with shaking (600 rpm) for 1 hour at room temperature, then the plates were washed and developed with 2× Read Buffer (Meso Scale Discovery). Chemilumeniscence was measured within ten minutes on the MSD Sector Imager 6000.
# Standard curves were analyzed using four-parameter logistic fit and sample concentrations were calculated by XLfit4 software version 2.2.1 Build 16, ([…].). Pharmacokinetic parameters were calculated for each animal using Winonlin software version 5.0.1 (Pharsight Corporation, Mountain View, Calif.) by noncompartmental analysis.
# Male and female Balb/c mice (weighing approximately 0.025 kg) were purchased from Charles River Laboratories (Wilmington, Mass.). The animals were allowed food and water ad libitum. Blood samples were collected (0.2 mL from the rats via the tail vein and by cardiac puncture from the mice) at various timepoints (5 mice at each timepoint) allowed to clot for 30 minutes at room temperature, centrifuged for 3 minutes at 13,200 rpm, the serum transferred to eppendorf tubes and stored frozen at −80° C.
# [3] = mice, intraperitoneal, both sexes
molecule,measurement,setting,value
B1,PG Selectivity in Biotin-PGE2 Competition ELISA (CRI %) PGA2,[1]; PGA2,0.21%
same,PG Selectivity in Biotin-PGE2 Competition ELISA (CRI %) PGD2,[1]; PGD2,<0.01%
same,PG Selectivity in Biotin-PGE2 Competition ELISA (CRI %) PGE1,[1]; PGE1,28%
same,Cmax,[2]; [3],37 to 49 µg/mL
same,bioavailability,[2]; [3],65.8-72.0%
same,half-life,[2]; [3],13.8 to 16.1 days
same,AUC0-∞,"[2]; mouse, female, IP 4 mg/kg",16.1 mg·h/mL
same,Cmax,"[2]; mouse, female, IP 4 mg/kg",49.4 µg/mL
same,F (%),"[2]; mouse, female, IP 4 mg/kg",65.8%
same,MRT,"[2]; mouse, female, IP 4 mg/kg",19.3 days
same,Tmax,"[2]; mouse, female, IP 4 mg/kg",1 days
same,T½,"[2]; mouse, female, IP 4 mg/kg",13.8 days
same,AUC0-∞,"[2]; mouse, female, IV 4 mg/kg",24.5 mg·h/mL
same,CL,"[2]; mouse, female, IV 4 mg/kg",0.16 mL/h/kg
same,MRT,"[2]; mouse, female, IV 4 mg/kg",22.8 days
same,T½,"[2]; mouse, female, IV 4 mg/kg",16.2 days
same,Vss,"[2]; mouse, female, IV 4 mg/kg",89 mL/kg
same,Vz,"[2]; mouse, female, IV 4 mg/kg",92 mL/kg
same,AUC0-∞,"[2]; mouse, male, IP 4 mg/kg",19.4 mg·h/mL
same,Cmax,"[2]; mouse, male, IP 4 mg/kg",37.3 µg/mL
same,F (%),"[2]; mouse, male, IP 4 mg/kg",72%
same,MRT,"[2]; mouse, male, IP 4 mg/kg",23.4 days
same,Tmax,"[2]; mouse, male, IP 4 mg/kg",2 days
same,T½,"[2]; mouse, male, IP 4 mg/kg",16.1 days
same,AUC0-∞,"[2]; mouse, male, IV 4 mg/kg",26.9 mg·h/mL
same,CL,"[2]; mouse, male, IV 4 mg/kg",0.15 mL/h/kg
same,MRT,"[2]; mouse, male, IV 4 mg/kg",37.5 days
same,T½,"[2]; mouse, male, IV 4 mg/kg",26.3 days
same,Vss,"[2]; mouse, male, IV 4 mg/kg",134 mL/kg
same,Vz,"[2]; mouse, male, IV 4 mg/kg",135 mL/kg
